From paper PMC12376267 (Chemistry (Weinheim an Der Bergstrasse, Germany), 2025) come the findings set out here.

For the experiment, the target named is T1, Recombinant mouse NELL2 (neural epidermal growth factor-like like 2) (mouse, UniProt Q61220 25-819).
T1 sequence (looked up): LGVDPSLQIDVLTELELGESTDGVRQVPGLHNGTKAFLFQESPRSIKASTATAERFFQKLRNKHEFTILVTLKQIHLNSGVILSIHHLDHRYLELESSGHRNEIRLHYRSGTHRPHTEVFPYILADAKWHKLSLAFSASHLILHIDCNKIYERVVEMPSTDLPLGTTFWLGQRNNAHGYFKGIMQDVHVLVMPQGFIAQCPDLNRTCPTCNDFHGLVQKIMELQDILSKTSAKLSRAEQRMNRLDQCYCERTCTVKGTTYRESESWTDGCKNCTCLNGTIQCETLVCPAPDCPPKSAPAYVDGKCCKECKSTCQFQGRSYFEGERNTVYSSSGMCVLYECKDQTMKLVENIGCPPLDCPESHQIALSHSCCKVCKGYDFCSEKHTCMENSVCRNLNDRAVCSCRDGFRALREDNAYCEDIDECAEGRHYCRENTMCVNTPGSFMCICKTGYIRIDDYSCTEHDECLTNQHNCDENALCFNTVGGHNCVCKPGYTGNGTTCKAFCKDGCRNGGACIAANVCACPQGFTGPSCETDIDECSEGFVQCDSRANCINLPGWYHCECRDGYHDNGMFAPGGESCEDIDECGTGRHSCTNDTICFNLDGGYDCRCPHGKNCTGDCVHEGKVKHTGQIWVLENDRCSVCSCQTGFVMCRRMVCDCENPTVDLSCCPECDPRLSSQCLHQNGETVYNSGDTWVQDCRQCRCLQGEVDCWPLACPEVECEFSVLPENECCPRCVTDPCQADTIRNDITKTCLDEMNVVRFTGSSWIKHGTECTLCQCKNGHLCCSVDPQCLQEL
The experiment can be described thus: SPR. (Surface plasmon resonance follows binding to a sensor surface in real time, without labels.)

Positions of bridges follow the written chain, without caps; N, C: chain ends.

B1: Synthetic NICOL with the native SS bond pairing 3 (mouse NELL2-interacting cofactor for lumicrine signaling) (natural protein)
chain: EPATGSAVPAQSRPCVDCHAFEFMQRALQDLRKTAYSLDARTETLLLQAERRALCACWPAGR
modifications: disulfide 15-55, 18-57
As a reminder, the Kd is the equilibrium constant for the complex coming apart. As usually defined, the koff is a measure of how fast the partners let go of each other. For orientation: kon means the rate constant with which the complex forms. As for B1, the Kd was found to be 61.7 nM, the koff was found to be 0.00134 s⁻¹ and the kon worked out at 23500 M⁻¹ s⁻¹.

B2: Synthetic NICOL with the SS isomer 4 (mouse NICOL, non-native SS bond pairing) (natural protein)
chain: EPATGSAVPAQSRPCVDCHAFEFMQRALQDLRKTAYSLDARTETLLLQAERRALCACWPAGR
modifications: disulfide 15-57, 18-55
Take B2: the Kd was determined as 145 nM, the koff is 0.00157 s⁻¹ and the kon came to 13800 M⁻¹ s⁻¹.
